Source: US20240270821A1, “GIP/GLP1/GCG TRI-RECEPTOR AGONISTS AND USES THEREOF” (priority 2023, published 2024)
Numbering of substitutions follows the chain as printed. Starred links: 1 amine or outer side, 2 acyl side, 3 side chain; linkers in the order of their positions; H or OH if unused. Non-standard residues stand in square brackets, D forms with d. Groups on a side chain read outwards from the residue. No end group written: not given here. *: point of attachment. C18 diacid = O=C(O)CCCCCCCCCCCCCCCCC(=O)*; γGlu = O=C(O)[C@H](CCC(=O)[*:2])N[*:1]; αMe4Pal = C[C@](N)(Cc1ccncc1)C(=O)O; 4Pal = N[C@@H](Cc1ccncc1)C(=O)O; αMeL = CC(C)C[C@](C)(N)C(=O)O; Orn = NCCC[C@H](N)C(=O)O; AEEA = NCCOCCOCC(=O)O; Aib = CC(C)(N)C(=O)O

T1: human GIP receptor (human) (UniProt P48546)
T1 sequence (looked up): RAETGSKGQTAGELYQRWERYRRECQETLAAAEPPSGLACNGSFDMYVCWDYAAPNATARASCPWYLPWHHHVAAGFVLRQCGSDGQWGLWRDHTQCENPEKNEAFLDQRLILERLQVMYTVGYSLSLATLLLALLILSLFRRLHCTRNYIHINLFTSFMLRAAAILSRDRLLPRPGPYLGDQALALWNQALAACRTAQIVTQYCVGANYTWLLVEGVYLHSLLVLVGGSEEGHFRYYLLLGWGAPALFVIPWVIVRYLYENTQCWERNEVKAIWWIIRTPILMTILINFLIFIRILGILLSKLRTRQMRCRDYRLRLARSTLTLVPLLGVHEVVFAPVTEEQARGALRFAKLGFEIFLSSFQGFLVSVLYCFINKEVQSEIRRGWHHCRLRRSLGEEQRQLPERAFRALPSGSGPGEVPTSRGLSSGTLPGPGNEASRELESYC

B1: Example 22 (peptide)
chain: YXQGTFTSDFSKXLDKKAQXAFIEYLLAGGPSSGEPPPSEG
modifications: synthetic construct; SITE 2: note = 2-Aminoisobutyric Acid; SITE 13: note = alpha-methyl-leucine; SITE 17: note = Lysine is chemically modified through conjugation of the epsilon-amino group of the Lysine side chain with (2-[2-(2-Amino-ethoxy)-ethoxy]-acetyl)-(gamma-Glu)-CO-(CH2) 16-CO2H; SITE 20: n
B2: Example 23 (peptide)
chain: B1 chain with E40G, G41E
modifications: synthetic construct; SITE 2: note = 2-Aminoisobutyric Acid; SITE 13: note = alpha-methyl-leucine; SITE 17: note = Lysine is chemically modified through conjugation of the epsilon-amino group of the Lysine side chain with (2-[2-(2-Amino-ethoxy)-ethoxy]-acetyl)-(gamma-Glu)-CO-(CH2) 16-CO2H; SITE 20: n
B3: Example 24 (peptide)
chain: B1 chain with G30A, E35A
modifications: synthetic construct; SITE 2: note = 2-Aminoisobutyric Acid; SITE 13: note = alpha-methyl-leucine; SITE 17: note = Lysine is chemically modified through conjugation of the epsilon-amino group of the Lysine side chain with (2-[2-(2-Amino-ethoxy)-ethoxy]-acetyl)-(gamma-Glu)-CO-(CH2) 18-CO2H; SITE 20: n
B4: Example 26 (peptide)
chain: B1 chain with A21Q
modifications: synthetic construct; SITE 2: note = 2-Aminoisobutyric Acid; SITE 13: note = alpha-methyl-leucine; SITE 17: note = Lysine is chemically modified through conjugation of the epsilon-amino group of the Lysine side chain with (2-[2-(2-Amino-ethoxy)-ethoxy]-acetyl)-(gamma-Glu)-CO-(CH2) 16-CO2H; SITE 20: n
B5: Example 28 (peptide)
chain: B1 chain with F10X, E40G, G41E
modifications: synthetic construct; SITE 2: note = 2-Aminoisobutyric Acid; SITE 10: note = 3-(4-Pyridyl)-L-alanine; SITE 13: note = alpha-methyl-leucine; SITE 17: note = Lysine is chemically modified through conjugation of the epsilon-amino group of the Lysine side chain with (2-[2-(2-Amino-ethoxy)-ethoxy]-acetyl)

Experiments:
[1] = tested on: Intestinal organoid from Göttingen minipig jejunum tissue, 2D monolayer; test: Cell based in vitro permeability (Papp) assay; assay type: in vitro ADME
Method: Intestinal organoid from Göttingen minipig jejunum tissue and its 2D monolayer are generated using the protocol previously described ([…]-Thiele, […].; Wells, J. M., Optimized procedures for generating an enhanced, near physiological 2D culture system from porcine intestinal organoids. […] After 7 days of culture, organoids are dissociated into single cells by TrypLE (GIbco), and the single cell suspension is added in 24-well transparent transwell inserts (0.3 cm^2, Falcon, BD). […] Samples from the basal compartment are collected at 20 min in the presence of C10. Peptide concentrations in the apical and basal compartments are measured by LC/MS, and the apparent permeability coefficient (Papp) is calculated as previously described (Twarog, C.; Liu, K.; O'Brien, P. J.; Dawson, […] head-to-head Caco-2 assay comparison of the mechanisms of action of the intestinal permeation enhancers: SNAC and sodium caprate (C10).

[2] = target: human GLP1-R (SNAP-GLP-1R expressed in HEK293 cells) (human) (UniProt P43220); test: cell-based or functional assay
Chain of human GLP1-R (SNAP-GLP-1R expressed in HEK293 cells) (human) (P43220 24-463): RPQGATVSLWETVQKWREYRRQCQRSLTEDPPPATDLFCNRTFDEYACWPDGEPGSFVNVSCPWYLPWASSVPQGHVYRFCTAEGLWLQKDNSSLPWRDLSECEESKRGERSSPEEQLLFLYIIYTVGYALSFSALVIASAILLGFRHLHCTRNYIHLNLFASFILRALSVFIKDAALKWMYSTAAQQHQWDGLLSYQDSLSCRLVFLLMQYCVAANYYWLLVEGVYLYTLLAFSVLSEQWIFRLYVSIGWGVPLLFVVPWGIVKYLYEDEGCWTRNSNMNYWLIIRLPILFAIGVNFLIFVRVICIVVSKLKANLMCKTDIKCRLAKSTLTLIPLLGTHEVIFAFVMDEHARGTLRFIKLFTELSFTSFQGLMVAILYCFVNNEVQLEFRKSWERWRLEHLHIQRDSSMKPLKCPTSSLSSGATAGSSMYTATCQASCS

[3] = target: T1, human GIP receptor (human); test: cell-based or functional assay
[4] = target: human glucagon receptor (human) (UniProt P47871); test: cell-based or functional assay
Chain of human glucagon receptor (human) (P47871 26-477): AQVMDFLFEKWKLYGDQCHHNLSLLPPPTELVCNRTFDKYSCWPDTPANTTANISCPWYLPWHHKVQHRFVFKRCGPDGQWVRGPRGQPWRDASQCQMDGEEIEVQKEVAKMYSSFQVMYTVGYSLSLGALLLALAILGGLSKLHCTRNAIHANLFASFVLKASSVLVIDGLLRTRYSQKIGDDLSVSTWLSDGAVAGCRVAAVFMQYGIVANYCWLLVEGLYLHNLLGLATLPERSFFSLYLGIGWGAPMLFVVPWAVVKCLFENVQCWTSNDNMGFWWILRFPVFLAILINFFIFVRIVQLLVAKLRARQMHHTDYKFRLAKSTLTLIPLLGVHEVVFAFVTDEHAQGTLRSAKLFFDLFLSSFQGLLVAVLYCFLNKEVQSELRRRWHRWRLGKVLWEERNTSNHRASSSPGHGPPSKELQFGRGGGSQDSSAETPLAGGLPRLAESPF

hGLP-1R = hGLP-1R (Homo sapiens, UniProt P43220); test: cell-based or functional assay
Chain of hGLP-1R (P43220 24-463): as the sequence (P43220 24-463) above

Row | Molecule | Relative Papp (Compared to internal standard) [1] | GLP1R Internalization EC50 [2] | Internalization % TOP [2] | Relative cAMP EC50 [3] | cAMP Rel EC50 (in the presence of 1% HSA) [3] | Relative cAMP EC50 [4] | cAMP Rel EC50 (in the presence of 1% HSA) [4] | Relative cAMP EC50 (hGLP-1R) | cAMP Rel EC50 (in the presence of 1% HSA) (hGLP-1R)
1 | H-Y[Aib]QGTFTSD[4Pal]SQ[αMeL]LD[Orn]K([Glu-γGlu-C18 diacid])AQ[αMe4Pal]AFIEYLIAGGPSSGAPPPSGSEE-NH2 [Example 1033] | 0.14 | – | – | – | – | – | – | – | –
2 | H-Y[Aib]QGTFTSDFS[Orn][αMeL]LDKK([AEEA-γGlu-C18 diacid])AQ[Aib]AFIEYLLE[dA]GPSSGAPPPSGS [Example 212] | 0.22 | – | – | – | – | – | – | – | –
3 | CC[C@H](C)[C@H](NC(=O)[C@H](Cc1ccccc1)NC(=O)[C@H](C)NC(=O)C(C)(C)NC(=O)[C@H](CCC(N)=O)NC(=O)[C@H](C)NC(=O)[C@H](CCCCNC(=O)COCCOCCNC(=O)CC[C@H](NC(=O)CCCCCCCCCCCCCCCCC(=O)O)C(=O)O)NC(=O)[C@H](CCCCN)NC(=O)[C@H](CC(=O)O)NC(=O)[C@H](CC(C)C)NC(=O)[C@](C)(CC(C)C)NC(=O)[C@H](CCCN)NC(=O)[C@H](CO)NC(=O)[C@H](Cc1ccccc1)NC(=O)[C@H](CC(=O)O)NC(=O)[C@H](CO)NC(=O)[C@@H](NC(=O)[C@H](Cc1ccccc1)NC(=O)[C@@H](NC(=O)CNC(=O)[C@H](CCC(N)=O)NC(=O)C(C)(C)NC(=O)[C@@H](N)Cc1ccc(O)cc1)[C@@H](C)O)[C@@H](C)O)C(=O)N[C@@H](CCC(=O)O)C(=O)N[C@@H](Cc1ccc(O)cc1)C(=O)N[C@@H](CC(C)C)C(=O)N[C@@H](CC(C)C)C(=O)N[C@@H](CCC(=O)O)C(=O)N[C@H](C)C(=O)NCC(=O)N1CCC[C@H]1C(=O)N[C@@H](CO)C(=O)N[C@@H](CO)C(=O)NCC(=O)N[C@@H](C)C(=O)N1CCC[C@H]1C(=O)N1CCC[C@H]1C(=O)N1CCC[C@H]1C(=O)N[C@@H](CO)C(=O)NCC(=O)N[C@H](C(=O)O)[C@@H](C)O [Example 213] | 0.26 | – | – | – | – | – | – | – | –
4 | B1 | – | 41.9 nM | 64.7% | 0.246 nM | 81 nM | 5.42 nM | 532 nM | 2.94 nM | 592 nM
5 | B2 | – | 51.5 nM | 67.2% | 0.178 nM | 25.5 nM | 5.13 nM | 573 nM | 2.98 nM | 308 nM
6 | B3 | – | 79.9 nM | 71.9% | 0.308 nM | 102 nM | 9.66 nM | 1390 nM | 3.09 nM | 447 nM
7 | B4 | – | 96.1 nM | 75.6% | 0.2 nM | 35.4 nM | 4.82 nM | 980 nM | 3.44 nM | 623 nM
8 | B5 | – | 81.8 nM | 76.2% | 0.255 nM | 63.8 nM | 12.6 nM | 1550 nM | 3.68 nM | 686 nM
